B1: Protein Rex (Human T-cell leukemia virus 1 (strain Japan ATK-1 subtype A)), P0C205 (parent)
chain: MPKTRRRPRRSQRKRPPTPWPTSQGLDRVFFSDTQSTCLETVYKATGAPSLGDYVRPAYIVTPYWPPVQSIRSPGTPSMDALSAQLYSSLSLDSPPSPPREPLRPSRSLPRQSLIQPPTFHPPSSRPCANTPPSEMDTWNPPLGSTSQPCLFQTPDSGPKTCTPSGEAPLSACTSTSFPPPSPGPSCPT

Variants of: B1
Conditions: with dicer_human DICER1, Q9UPY3

Variant	effect of a mutation on the interaction
T119D	disrupting interaction
H121L	disrupting interaction
F120L	disrupting interaction

Variants of: B1
Conditions: with dicer_human DICER1, Q9UPY3
Remark: another data set of the same source

Variant	effect of a mutation on the interaction
L92A	decreasing interaction
L90A	decreasing interaction

Variants of: B1
Conditions: with dicer_human DICER1, Q9UPY3
Remark: another data set of the same source

Variant	effect of a mutation on the interaction
W65L	disrupting interaction
Y64D	disrupting interaction

Variants of: B1
Conditions: with dicer_human DICER1, Q9UPY3
Remark: another data set of the same source

Variant	effect of a mutation on the interaction
R5D	decreasing interaction
R6D	decreasing interaction
R7D	decreasing interaction
